# Laboratory results taken from patent publication US20180141989A1 (BOARD OF REGENTS OF THE UNIVERSITY OF OKLAHOMA, published 2018).
# Where no end group is shown, it is not given here.
# Experiments:
# [1] = target: T1, MBP-RAMP1 ECD-(GS)5-CLR ECD-H6 fusion protein (human, UniProt O60894 24-111; Q16602 29-144); assay: FP (anisotropy) competition: displaces FITC-Ahx-AM(37-52)NH2[S45W,Q50W] probe (7 nM) from MBP-RAMP1 ECD-(GS)5-CLR ECD-H6 (15 nM) [I-J) lower graph]
# T1 construct: range 24-111;range 29-144; Tethered ECD fusion made in E. coli; used in the FP assay at 15 nM; also called MBP-hRAMP1.24-111-(Gly-Ser)5-hCLR.29-144-H6
# T1 sequence (O60894 other isoform, or with tags, fused parts or gaps limits assumed, form in doubt): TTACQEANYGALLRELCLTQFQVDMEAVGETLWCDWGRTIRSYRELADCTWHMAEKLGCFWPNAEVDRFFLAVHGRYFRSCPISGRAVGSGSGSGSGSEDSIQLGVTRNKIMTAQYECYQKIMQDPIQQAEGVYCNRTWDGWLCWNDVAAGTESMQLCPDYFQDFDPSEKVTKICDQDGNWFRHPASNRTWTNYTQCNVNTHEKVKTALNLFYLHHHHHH
# Method: (§1) Fluorescence polarization peptide binding assay. […] The reactions (50 μL) were incubated for 2 hours at room temperature to reach equilibrium, and the anisotropy was measured in black half-area 96-well plates using a BMG LABTECH's POLARstar® Omega plate reader (Ortenberg, Germany). The reaction buffer was 50 mM HEPES, pH 7.5, 150 mM NaCl, 0.5 mg/ml fatty acid-free BSA, 0.5 mM EDTA, 0.5 mM maltose. KI values were calculated using nonlinear regression fitting of the competition curves to the exact analytical equations of Roehrl et al. (Biochemistry (2004) 43:16056-66) using GraphPad Prism 5.0 (GraphPad Software, San Diego Calif.).
# [2] = target: MBP-RAMP2 ECD [L106R]-(GS)5-CLR ECD-H6 fusion protein (human) (UniProt O60895); assay: FP (anisotropy) competition: displaces FITC-Ahx-AM(37-52)NH2[S45W,Q50W] probe (7 nM) from MBP-RAMP2 ECD[L106R]-(GS)5-CLR ECD-H6 (110 nM) [I-K) panel I]
# Sequence of MBP-RAMP2 ECD [L106R]-(GS)5-CLR ECD-H6 fusion protein (human) (O60895 other isoform, or with tags, fused parts or gaps L106R L106R): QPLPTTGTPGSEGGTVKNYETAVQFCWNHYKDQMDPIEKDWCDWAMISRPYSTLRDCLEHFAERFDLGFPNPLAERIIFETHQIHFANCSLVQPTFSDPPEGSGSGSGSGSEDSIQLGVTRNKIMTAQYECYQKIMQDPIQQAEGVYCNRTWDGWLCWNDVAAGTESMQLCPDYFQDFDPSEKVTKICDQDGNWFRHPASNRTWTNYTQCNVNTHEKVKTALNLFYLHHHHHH
# [3] = target: T1, MBP-RAMP1 ECD-(GS)5-CLR ECD-H6 fusion …; assay: FP (anisotropy) competition: displaces FITC-Ahx-AM(37-52)NH2[S45W,Q50W] probe (7 nM) from MBP-RAMP1 ECD-(GS)5-CLR ECD-H6 (15 nM) [F-H) panel H]
# Method: as §1
# [4] = target: MBP-RAMP2 ECD [L106R]-(GS)5-CLR ECD-H6 fusion protein (human) (UniProt O60895); assay: FP (anisotropy) competition: displaces FITC-Ahx-AM(37-52)NH2[S45W,Q50W] probe (7 nM) from MBP-RAMP2 ECD[L106R]-(GS)5-CLR ECD-H6 (110 nM) [I-K) panel J]
# [5] = target: T1, MBP-RAMP1 ECD-(GS)5-CLR ECD-H6 fusion …; assay: FP (anisotropy) competition: displaces FITC-Ahx-AM(37-52)NH2[S45W,Q50W] probe (7 nM) from MBP-RAMP1 ECD-(GS)5-CLR ECD-H6 (15 nM) [I-J) upper graph]
# Method: as §1
# [6] = target: MBP-RAMP2 ECD [L106R]-(GS)5-CLR ECD-H6 fusion protein (human) (UniProt O60895); assay: FP competition vs FITC-AM W/W probe, purified ECD fusion
# [7] = target: T1, MBP-RAMP1 ECD-(GS)5-CLR ECD-H6 fusion …; assay: ratio of FP KI values at the two ECD complexes
# Method: as §1
# (§2) The large size difference between the MBP-RAMP ECD-CLR ECD fusion proteins (˜65 kDa) and the probe (˜2.5 kDa) ensures a significant anisotropy difference between bound and free states of the probe. […] Kd values for the probe at each of the tethered ECD fusion proteins were determined in equilibrium saturation binding experiments (data not shown), and KI values were determined for unlabeled peptides in equilibrium competition experiments (Table 1; FIGS. 2-5). The data were analyzed according to exact analytical equations using non-linear regression curve fitting in GraphPad Prism 5.0 (GraphPad Software) via user-defined equations.
# [8] = target: T1, MBP-RAMP1 ECD-(GS)5-CLR ECD-H6 fusion …; assay: FP competition vs FITC-AM W/W probe, purified ECD fusion
# Method: as §1, §2
# [9] = target: T1, MBP-RAMP1 ECD-(GS)5-CLR ECD-H6 fusion …; assay: FP (anisotropy) competition: displaces FITC-Ahx-AM(37-52)NH2[S45W,Q50W] probe (7 nM) from MBP-RAMP1 ECD-(GS)5-CLR ECD-H6 (15 nM) [D-E) panel D]
# Method: as §1
# [10] = target: T1, MBP-RAMP1 ECD-(GS)5-CLR ECD-H6 fusion …; assay: FP (anisotropy) competition: displaces FITC-Ahx-AM(37-52)NH2[S45W,Q50W] probe (7 nM) from MBP-RAMP1 ECD-(GS)5-CLR ECD-H6 (15 nM) [A-C) panel C]
# Method: as §1
# [11] = target: T2, MBP-RAMP1 ECD-(GS)5-CTR ECD-H6 fusion protein (human, UniProt O60894 27-118; P30988 34-141, limits assumed); assay: AlphaLISA competition vs Biotin-AC413 probe, purified AMY1 ECD fusion
# T2 construct: extracellular domain; CTR-based proteins were produced in HEK293T cells (N-glycosylated); also called RAMP1-CTR ECD; RAMP1-CTR
# T2 sequence (O60894 other isoform, or with tags, fused parts or gaps limits assumed): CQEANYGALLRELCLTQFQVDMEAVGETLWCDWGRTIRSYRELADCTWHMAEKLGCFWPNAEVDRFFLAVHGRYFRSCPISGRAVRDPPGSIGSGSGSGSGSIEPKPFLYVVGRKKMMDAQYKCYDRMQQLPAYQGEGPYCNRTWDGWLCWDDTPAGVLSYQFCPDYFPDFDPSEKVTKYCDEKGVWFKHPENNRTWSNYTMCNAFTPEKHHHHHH
# Method: A single representative experiment conducted with duplicate samples is shown. […] The reactions were incubated for 5 hours at room temperature to reach equilibrium, and the luminescence was measured in white 384-well plates using a BMG LABTECH's POLARstar® Omega plate reader (Ortenberg, Germany). The reaction buffer was 50 mM MOPS, pH 7.4, 150 mM NaCl, 7 mg/ml fatty acid-free BSA and the streptavidin-coated donor beads and MBP-antibody coated acceptor beads were at 15 μg/ml each. IC₅₀ values were calculated using nonlinear regression fitting of the competition curves to a three-parameter, one-site competitive binding equation in GraphPad Prism 5.0 (GraphPad Software, San Diego Calif.).
# [12] = target: T1, MBP-RAMP1 ECD-(GS)5-CLR ECD-H6 fusion …; assay: FP (anisotropy) competition: displaces FITC-Ahx-AM(37-52)NH2[S45W,Q50W] probe (7 nM) from MBP-RAMP1 ECD-(GS)5-CLR ECD-H6 (15 nM) [D-E) panel E]
# Method: as §1
# [13] = target: T1, MBP-RAMP1 ECD-(GS)5-CLR ECD-H6 fusion …; assay: FP (anisotropy) competition: displaces FITC-Ahx-AM(37-52)NH2[S45W,Q50W] probe (7 nM) from MBP-RAMP1 ECD-(GS)5-CLR ECD-H6 (15 nM) [A-C) panel B]
# Method: as §1
# as §1, with “Single representative experiments conducted with duplicate samples are shown.” for “Fluorescence polarization peptide binding assay.”, “reactions” for “reactions (50 μL)”
# [14] = target: T1, MBP-RAMP1 ECD-(GS)5-CLR ECD-H6 fusion …; assay: FP (anisotropy) competition: displaces FITC-Ahx-AM(37-52)NH2[S45W,Q50W] probe (7 nM) from MBP-RAMP1 ECD-(GS)5-CLR ECD-H6 (15 nM) [A-C) panel C]; remark: listed apart in the source
# Method: as §1
# as §1, with “Single representative experiments conducted with duplicate samples are shown.” for “Fluorescence polarization peptide binding assay.”, “reactions” for “reactions (50 μL)”
Binder,Ki [6] [nM],pKI [6],"Receptor Selectivity (fold, over RAMP2-CLR ECD) [7] [fold]",Ki [8] [nM],pKI [8],also measured
"VKDNVAPRWLISPWGF-NH2 (also called AM(37-52)NH2 [D37V, S45W, K46L, Q50W, Y52F]) [AM(37-52) D37V/S45W/K46L/Q50W/Y52F]",–,–,–,–,–,IC50 (read off the curve) [1]: ~10 nM
"DKDNVAPRRLISPWGY-NH2 (also called AM(37-52)NH2 [S45R, K46L, Q50W]) [AM(37-52) S45R/K46L/Q50W]",–,–,–,–,–,IC50 (read off the curve) [2]: 300 nM; IC50 (read off the curve) [3]: ~90 nM
"DKDNVAPRRLIGPWGY-NH2 (also called AM(37-52)NH2 [S45R, K46L, S48G, Q50W]) [AM(37-52) S45R/K46L/S48G/Q50W]",–,–,–,–,–,IC50 (read off the curve) [4]: 90 nM; IC50 (read off the curve) [5]: ~20 nM
"DKDNVAPRRWLGPWGY-NH2 (also called AM(37-52)NH2 [S45R, K46W, I47L, S48G, Q50W]) [AM(37-52) S45R/K46W/I47L/S48G/Q50W]",–,–,–,–,–,IC50 (read off the curve) [4]: 1000 nM; IC50 (read off the curve) [5]: ~100 nM
"DKDNVAPRRWISPWGY-NH2 (also called AM(37-52)NH2 [S45R, K46W, Q50W]) [AM(37-52) S45R/K46W/Q50W]",–,–,–,–,–,IC50 (read off the curve) [2]: 2000 nM; IC50 (read off the curve) [3]: ~300 nM
"DKDNVAPRRWIGPWGY-NH2 (also called AM(37-52)NH2 [S45R, K46W, S48G, Q50W]) [AM(37-52) S45R/K46W/S48G/Q50W]",–,–,–,–,–,IC50 (read off the curve) [4]: 700 nM; IC50 (read off the curve) [5]: ~100 nM
"DKFNVAPRSLISPWGF-NH2 [AM(37-52)NH2 [D39F, K46L, Q50W, Y52F]]",30300,4.55,1210,25,7.61,IC50 (read off the curve) [9]: ~80 nM
"DKFNVAPRSLISPWGY-NH2 [AM(37-52)NH2 [D39F, K46L, Q50W]]",1830,5.74,22,82.2,7.1,IC50 (read off the curve) [9]: ~200 nM
"DKDNVAPRSLISPWGF-NH2 [AM(37-52)NH2 [K46L, Q50W, Y52F]]",89100,4.05,2820,31.6,7.5,IC50 (read off the curve) [10]: ~100 nM
"DKDNVAPRSLISPWGY-NH2 [AM(37-52)NH2 [K46L, Q50W]]",1660,5.78,23,70.8,7.15,IC50 (read off the curve) [10]: ~100 nM
"DKDNVAPRWLISPWGF-NH2 [AM(37-52)NH2 [S45W, K46L, Q50W, Y52F]]",4070,5.39,2130,1.91,8.72,IC50 [11]: 16000 nM; IC50 (read off the curve) [9]: ~20 nM
"DKDNVAPRWMISPWGF-NH2 [AM(37-52)NH2 [S45W, K46M, Q50W, Y52F]]",7760,5.11,977,7.94,8.1,IC50 (read off the curve) [12]: ~30 nM
"DKDNVAPRWWISPWGF-NH2 [AM(37-52)NH2 [S45W, K46W, Q50W, Y52F]]",16600,4.78,692,24,7.62,IC50 (read off the curve) [12]: ~70 nM
"DKDNVAPRTWISPWGY-NH2 [AM(37-52)NH2[S45T, K46W, Q50W]]",12500,4.9,28,440,6.36,–
"FVPTDVGPFSF-NH2 [CGRP(27-37)NH2 [N31D, S34P, K35F, A36S]]",–,–,–,2.95,8.53,IC50 (read off the curve) [13]: ~20 nM
"FVPTDVGPWSY-NH2 [CGRP(27-37)NH2 [N31D, S34P, K35W, A36S, F37Y]]",324,6.49,245,1.32,8.88,IC50 (read off the curve) [14]: ~20 nM
"FVPTDVGPWAF-NH2 [CGRP(27-37)NH2 [N31D, S34P, K35W]]",–,–,–,8.13,8.09,IC50 (read off the curve) [13]: ~20 nM
"FVPTDTGPWGY-NH2 [CGRP(27-37)NH2 [N31D, V32T, S34P, K35W, A36G, F37Y]]",14500,4.84,821,17.6,7.75,–
DKKNVAPRSKISPQGY-NH2 [AM(37-52)NH2 [D39K]],6100,5.22,–,–,–,–
